Here are results for 32 molecules from US20240270846A1 (published 2024).

Where a chain is given by its changes, count along the chain named.

For the assay, the target named is T1, CD3 epsilon homodimer protein (UniProt P07766 23-126).
T1 construct: also called CD3 (CD3 epsilon)
As to the kind of experiment: SPR Biacore T200, CD3 epsilon homodimer on chip, antibody as analyte.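 Also: homodimer amine-coupled to a CM4 sensor chip, run at 25 °C in HBS-EP+ buffer, with kinetic parameters derived in Biacore T200 Evaluation Software.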 A general note: SPR reads the build-up and loss of mass on a sensor chip optically.

T1 sequence (P07766 23-126): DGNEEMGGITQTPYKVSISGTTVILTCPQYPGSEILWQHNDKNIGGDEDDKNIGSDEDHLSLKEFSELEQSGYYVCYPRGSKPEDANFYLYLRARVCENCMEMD

B1: CE115HA000 H chain altered form N54Y (antibody, human IgG1, kappa, L234A L235A, N297A, name in Kabat numbering)
heavy: QVQLVESGGGVVQPGRSLRLSCAASGFTFSNAWMHWVRQAPGKGLEWVAQIKAKSNYYATYYAESVKGRFTISRDDSKNSLYLQMNSLKTEDTAVYYCRYVHYGAYYGVDAWGQGTTVTVSSASTKGPSVFPLAPSSKSTSGGTAALGCLVKDYFPEPVTVSWNSGALTSGVHTFPAVLQSSGLYSLSSVVTVPSSSLGTQTYICNVNHKPSNTKVDKKVEPKSCDKTHTCPPCPAPEAAGGPSVFLFPPKPKDTLMISRTPEVTCVVVDVSHEDPEVKFNWYVDGVEVHNAKTKPREEQYASTYRVVSVLTVLHQDWLNGKEYKCKVSNKALPAPIEKTISKAKGQPREPQVYTLPPSRCELTKNQVSLSCAVKGFYPSDIAVEWESNGQPENNYKTTPPVLDSDGSFFLVSKLTVDKSRWQQGNVFSCSVMHEALHNHYTQKSLSLSPDYKDDDDK
chain: EPKSSDKTHTCPPCPAPELLGGPSVFLFPPKPKDTLMISRTPEVTCVVVDVSHEDPEVKFNWYVDGVEVHNAKTKPREEQYNSTYRVVSVLTVLHQDWLNGKEYKCKVSNKALPAPIEKTISKAKGQPREPQVCTLPPSRDELTKNQVSLWCLVKGFYPSDIAVEWESNGQPENNYKTTPPVLDSDGSFFLYSKLTVDKSRWQQGNVFSCSVMHEALHNRYTQKSLSLSP
light: DIVMTQSPLSLPVTPGEPASISCRSSQSLVHSNRNTYLHWYQQKPGQAPRLLIYKVSNRFSGVPDRFSGSGSGTDFTLKISRVEAEDVGVYYCGQGTQVPYTFGQGTKLEIKRTVAAPSVFIFPPSDEQLKSGTASVVCLLNNFYPREAKVQWKVDNALQSGNSQESVTEQDSKDSTYSLSSTLTLSKADYEKHKVYACEVTHQGLSSPVTKSFNRGEC
notes: one-arm antibody
Take B1: the “KD ratio (KD of CE115HA000 / KD of altered form)” value was determined as 1.03.

B2: CE115HA000 H chain altered form T57A (antibody, human IgG1, kappa, L234A L235A, N297A, name in Kabat numbering)
heavy: B1 heavy with Y57N, T60A
chain: B1 chain
light: B1 light
notes: one-arm antibody
For the molecule B2, the “KD ratio (KD of CE115HA000 / KD of altered form)” value turned out to be 0.87.

B3: CE115HA000 H chain altered form S30D (antibody, human IgG1, kappa, L234A L235A, N297A, name in Kabat numbering)
heavy: B1 heavy with S30D, Y57N
chain: B1 chain
light: B1 light
notes: one-arm antibody
With B3, the “KD ratio (KD of CE115HA000 / KD of altered form)” value came out at 0.79.

B4: CE115HA000 H chain altered form Q50I (antibody, human IgG1, kappa, L234A L235A, N297A, name in Kabat numbering)
heavy: B1 heavy with Q50I, Y57N
chain: B1 chain
light: B1 light
notes: one-arm antibody
As to B4, the “KD ratio (KD of CE115HA000 / KD of altered form)” value was 1.21.

B5: CE115HA000 H chain altered form Q50Y (antibody, human IgG1, kappa, L234A L235A, N297A, name in Kabat numbering)
heavy: B1 heavy with Q50Y, Y57N
chain: B1 chain
light: B1 light
notes: one-arm antibody
As for B5, the “KD ratio (KD of CE115HA000 / KD of altered form)” value is 49.1.

B6: CE115HA000 H chain altered form S52cY (antibody, human IgG1, kappa, L234A L235A, N297A, name in Kabat numbering)
heavy: B1 heavy with S55Y, Y57N
chain: B1 chain
light: B1 light
notes: one-arm antibody
As to B6, the “KD ratio (KD of CE115HA000 / KD of altered form)” value was 0.87.

B7: CE115HA000 H chain altered form R16E (antibody, human IgG1, kappa, L234A L235A, N297A, name in Kabat numbering)
heavy: B1 heavy with R16E, Y57N
chain: B1 chain
light: B1 light
notes: one-arm antibody
In the case of B7, the “KD ratio (KD of CE115HA000 / KD of altered form)” value was found to be 0.74.

B8: CE115HA000 H chain altered form S52cQ (antibody, human IgG1, kappa, L234A L235A, N297A, name in Kabat numbering)
heavy: B1 heavy with S55Q, Y57N
chain: B1 chain
light: B1 light
notes: one-arm antibody
For the molecule B8, the “KD ratio (KD of CE115HA000 / KD of altered form)” value was 0.97.

B9: CE115HA000 H chain altered form W33D (antibody, human IgG1, kappa, L234A L235A, N297A, name in Kabat numbering)
heavy: B1 heavy with W33D, Y57N
chain: B1 chain
light: B1 light
notes: one-arm antibody
Consider B9, for which the “KD ratio (KD of CE115HA000 / KD of altered form)” value was 1690.

B10: CE115HA000 H chain altered form V11L (antibody, human IgG1, kappa, L234A L235A, N297A, name in Kabat numbering)
heavy: B1 heavy with V11L, Y57N
chain: B1 chain
light: B1 light
notes: one-arm antibody
Regarding B10, the “KD ratio (KD of CE115HA000 / KD of altered form)” value amounted to 0.83.

B11: CE115HA000 H chain altered form T57I (antibody, human IgG1, kappa, L234A L235A, N297A, name in Kabat numbering)
heavy: B1 heavy with Y57N, T60I
chain: B1 chain
light: B1 light
notes: one-arm antibody
In the case of B11, the “KD ratio (KD of CE115HA000 / KD of altered form)” value worked out at 0.81.

B12: CE115HA000 H chain altered form R19T (antibody, human IgG1, kappa, L234A L235A, N297A, name in Kabat numbering)
heavy: B1 heavy with R19T, Y57N
chain: B1 chain
light: B1 light
notes: one-arm antibody
For the molecule B12, the “KD ratio (KD of CE115HA000 / KD of altered form)” value came out at 0.81.

B13: CE115HA000 H chain altered form T28S (antibody, human IgG1, kappa, L234A L235A, N297A, name in Kabat numbering)
heavy: B1 heavy with T28S, Y57N
chain: B1 chain
light: B1 light
notes: one-arm antibody
As to B13, the “KD ratio (KD of CE115HA000 / KD of altered form)” value came out at 0.79.

B14: CE115HA000 H chain altered form T28D (antibody, human IgG1, kappa, L234A L235A, N297A, name in Kabat numbering)
heavy: B1 heavy with T28D, Y57N
chain: B1 chain
light: B1 light
notes: one-arm antibody
With B14, the “KD ratio (KD of CE115HA000 / KD of altered form)” value was found to be 0.93.

B15: CE115HA000 H chain altered form Q50K (antibody, human IgG1, kappa, L234A L235A, N297A, name in Kabat numbering)
heavy: B1 heavy with Q50K, Y57N
chain: B1 chain
light: B1 light
notes: one-arm antibody
As to B15, the “KD ratio (KD of CE115HA000 / KD of altered form)” value came out at 0.71.

B16: CE115HA000 H chain altered form S52cF (antibody, human IgG1, kappa, L234A L235A, N297A, name in Kabat numbering)
heavy: B1 heavy with S55F, Y57N
chain: B1 chain
light: B1 light
notes: one-arm antibody
Regarding B16, the “KD ratio (KD of CE115HA000 / KD of altered form)” value was found to be 0.93.

B17: CE115HA000 H chain altered form T57K (antibody, human IgG1, kappa, L234A L235A, N297A, name in Kabat numbering)
heavy: B1 heavy with Y57N, T60K
chain: B1 chain
light: B1 light
notes: one-arm antibody
In the case of B17, the “KD ratio (KD of CE115HA000 / KD of altered form)” value was 1.22.

B18: CE115HA000 H chain altered form Q50L (antibody, human IgG1, kappa, L234A L235A, N297A, name in Kabat numbering)
heavy: B1 heavy with Q50L, Y57N
chain: B1 chain
light: B1 light
notes: one-arm antibody
As for B18, the “KD ratio (KD of CE115HA000 / KD of altered form)” value is 1.41.

B19: CE115HA000 H chain altered form Q50S (antibody, human IgG1, kappa, L234A L235A, N297A, name in Kabat numbering)
heavy: B1 heavy with Q50S, Y57N
chain: B1 chain
light: B1 light
notes: one-arm antibody
With B19, the “KD ratio (KD of CE115HA000 / KD of altered form)” value was found to be 47.4.

B20: CE115HA000 H chain altered form S52cK (antibody, human IgG1, kappa, L234A L235A, N297A, name in Kabat numbering)
heavy: B1 heavy with S55K, Y57N
chain: B1 chain
light: B1 light
notes: one-arm antibody
Regarding B20, the “KD ratio (KD of CE115HA000 / KD of altered form)” value stood at 0.88.

B21: CE115HA000 H chain altered form Q50D (antibody, human IgG1, kappa, L234A L235A, N297A, name in Kabat numbering)
heavy: B1 heavy with Q50D, Y57N
chain: B1 chain
light: B1 light
notes: one-arm antibody
As to B21, the “KD ratio (KD of CE115HA000 / KD of altered form)” value came to 75.4.

B22: CE115HA000 H chain altered form Q50E (antibody, human IgG1, kappa, L234A L235A, N297A, name in Kabat numbering)
heavy: B1 heavy with Q50E, Y57N
chain: B1 chain
light: B1 light
notes: one-arm antibody
B22: the “KD ratio (KD of CE115HA000 / KD of altered form)” value is 16700.

B23: CE115HA000 H chain altered form W33A (antibody, human IgG1, kappa, L234A L235A, N297A, name in Kabat numbering)
heavy: B1 heavy with W33A, Y57N
chain: B1 chain
light: B1 light
notes: one-arm antibody
On to B23, for which the “KD ratio (KD of CE115HA000 / KD of altered form)” value worked out at 30.

B24: CE115HA000 H chain altered form S52cL (antibody, human IgG1, kappa, L234A L235A, N297A, name in Kabat numbering)
heavy: B1 heavy with S55L, Y57N
chain: B1 chain
light: B1 light
notes: one-arm antibody
On to B24, for which the “KD ratio (KD of CE115HA000 / KD of altered form)” value was found to be 0.94.

B25: CE115HA000 H chain altered form Q50A (antibody, human IgG1, kappa, L234A L235A, N297A, name in Kabat numbering)
heavy: B1 heavy with Q50A, Y57N
chain: B1 chain
light: B1 light
notes: one-arm antibody
Turning to B25, the “KD ratio (KD of CE115HA000 / KD of altered form)” value was determined as 22.6.

B26: CE115HA000 H chain altered form T57N (antibody, human IgG1, kappa, L234A L235A, N297A, name in Kabat numbering)
heavy: B1 heavy with Y57N, T60N
chain: B1 chain
light: B1 light
notes: one-arm antibody
As for B26, the “KD ratio (KD of CE115HA000 / KD of altered form)” value was determined as 0.9.

B27: CE115HA000 H chain altered form R16Q (antibody, human IgG1, kappa, L234A L235A, N297A, name in Kabat numbering)
heavy: B1 heavy with R16Q, Y57N
chain: B1 chain
light: B1 light
notes: one-arm antibody
For the molecule B27, the “KD ratio (KD of CE115HA000 / KD of altered form)” value turned out to be 0.87.

B28: CE115HA000 H chain altered form S30G (antibody, human IgG1, kappa, L234A L235A, N297A, name in Kabat numbering)
heavy: B1 heavy with S30G, Y57N
chain: B1 chain
light: B1 light
notes: one-arm antibody
In the case of B28, the “KD ratio (KD of CE115HA000 / KD of altered form)” value is 0.93.

B29: CE115HA000 H chain altered form S52cG (antibody, human IgG1, kappa, L234A L235A, N297A, name in Kabat numbering)
heavy: B1 heavy with S55G, Y57N
chain: B1 chain
light: B1 light
notes: one-arm antibody
Consider B29, for which the “KD ratio (KD of CE115HA000 / KD of altered form)” value came to 0.81.

B30: CE115HA000 H chain altered form S52cD (antibody, human IgG1, kappa, L234A L235A, N297A, name in Kabat numbering)
heavy: B1 heavy with S55D, Y57N
chain: B1 chain
light: B1 light
notes: one-arm antibody
On to B30, for which the “KD ratio (KD of CE115HA000 / KD of altered form)” value is 0.55.

B31: CE115HA000 H chain altered form S52cA (antibody, human IgG1, kappa, L234A L235A, N297A, name in Kabat numbering)
heavy: B1 heavy with S55A, Y57N
chain: B1 chain
light: B1 light
notes: one-arm antibody
For the molecule B31, the “KD ratio (KD of CE115HA000 / KD of altered form)” value was 0.67.

B32: CE115HA000 H chain altered form S52cV (antibody, human IgG1, kappa, L234A L235A, N297A, name in Kabat numbering)
heavy: B1 heavy with S55V, Y57N
chain: B1 chain
light: B1 light
notes: one-arm antibody
As for B32, the “KD ratio (KD of CE115HA000 / KD of altered form)” value is 0.82.
